Assay: yeast display, Sf9 membrane polyspecificity reagent, FACS + sequencing; frameworks hold sequencing errors
Method in brief: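 Nanobodies came from a synthetic yeast display library in Saccharomyces cerevisiae BJ5465, induced with galactose for 36–48 hours and stained for 1 hour at 4 °C with 10% biotinylated, detergent-solubilized Sf9 membrane reagent. Cells were enriched on streptavidin microbeads and then FACS-sorted, with low and high (top ~1%) gates set on anti-HA fluorescence for expression and streptavidin fluorescence for reagent binding. Each polyreactivity label reflects the gate a clone came from. Genes were amplified by colony PCR, sequenced by MiSeq 2 × 250 and filtered by CDR length.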

Sequence	polyreactivity (PSR sort gate)
QVQLVESGGGLVQAGGSLRLSCAASGIIFPSYDMGWYRQAPGKERELVAAINSGDSTYYADSVKGRFTISRDNAKNTVYLQMNSLKPEDTAVYYCAANPGDLGGWYVPYDYWGQGTQVTVSS	low polyreactivity
QVQLVESGGGLVQAGGSLRLSCAASGIIFPSYVMGWYRQAPGKERELVAVITWSGGSTYYADSVKGRFTISRDNAKNTVYLQMNSLKPEDTAVYYCARRRRWVHSFDYWGQGTQVTVSS	high polyreactivity
QVQLVESGGGLVQAGGSLRLSCAASGIIFPTYVMGWYRQAPGKERELVAVISWSGASTYYADSVKGRFTISRDNAKNSVYLQMNSLKPEDTAVYYCAADWWRVEMDYWGQGTQVTVSS	low polyreactivity
QVQLVESGGGLVQAGGSLRLSCAASGIIFPYYAMGWYRQAPGKERELVAAINSSGGSTFYAHSVKGRFTISRDNAKNTVYLQMNSLKPVVTAVYYCAAETLRYRWSLYYWGQGTQVTVSS	high polyreactivity
QVQLVESGGGLVQAGGSLRLSCAASGIIFPYYAMGWYRQAPGKERELVARITRRGGSTYYADSVKGRFTISRDNAKNTVYLQMNSLKPEDTAVYYCAAYAPYYRTMEYWGQGTQVTLSS	high polyreactivity
QVQLVESGGGLVQAGGSLRLSCAASGIIFQDNAMGWYRQAPGKERELVATIDRGGDTYYADSVKGRFTISRDNAKNTVYLQMNSLKPEDTAVYYCAAVEFELRGDYWGQGTQVTVSS	low polyreactivity
QVQLVESGGGLVQAGGSLRLSCAASGIIFQFYAMGWYRQAPGKERELVAAISRSGGITHYADSVKGRFTISRDNAKNTVYLQMNSLKPEDTAVYYCAAVRQAYPRLDYWGQGTQVTVSS	high polyreactivity
QVQLVESGGGLVQAGGSLRLSCAASGIIFQFYAMGWYRQAPGKERELVAAISRSGGITHYADSVKGRFTISRDNAKNTVYLQMNSLKPEDTAVYYCNAVQPARFVGGFGTGVDYWGQGTQVTVSS	high polyreactivity
QVQLVESGGGLVQAGGSLRLSCAASGIIFQHNAMGWYRQAPGKERELVAAISSNGGRTFYPDSVKGRFTISRDNAKNTVYLQMNSLKPEDTAVYYCNRQYPSRYGYWGQGTQVTVSS	high polyreactivity
QVQLVESGGGLVQAGGSLRLSCAASGIIFQLNAMGWYRQAPGKERELVAAISSVGSTYYADSVKGRFTISRDNAKNTVYLQMNSLKPEDTAVYYCAAETYSTAHNAYFEIAYYWGQGTQVTVSS	high polyreactivity
QVQLVESGGGLVQAGGSLRLSCAASGIIFQQYAMGWYRQAPGKERELVAAITYSGDGTYYADSVKGRFTISRDNAKNTVYLQMNSLKPEDTAVYYCAAYPRDPYKEYDYWGQGTQVTVSS	low polyreactivity
QVQLVESGGGLVQAGGSLRLSCAASGIIFQRNDMGWYRQAPGKERELVASITSGGSTNYADSVKGRFTISRDNAKNTVYLQMNSLKPEDTAVYYCARVSVSDYDYWGQGTQVTVSS	low polyreactivity
QVQLVESGGGLVQAGGSLRLSCAASGIIFRANAMGWYRQAPGKERELVAAISSSGGSTFYADSVKGRFTISRDNAKNTVYLQMNSLKPEDTAVYFCAAGRSKFAWSEYEYWGQGTQVSVSS	low polyreactivity
QVQLVESGGGLVQAGGSLRLSCAASGIIFRDNAMGWYRQAPGKERELVAAIDSSGGTTYADSVKGRFTISRDNAKNTVYLQTHSLTPEDTAVYYCATEVYWTVSYYGYDYYGGNYYYWGQGTQVTVSS	low polyreactivity
QVQLVESGGGLVQAGGSLRLSCAASGIIFRFNGMGWYRQAPGKEREFVAAISGGAGSTYYADSVKGRFTISRDNAKNTVYLQMNSLKPEDTAVYYCAAVWRTRWASGYYWGQGTQVTVSS	high polyreactivity
QVQLVESGGGLVQAGGSLRLSCAASGIIFRFYAMGWYRQAPGKERELVARIRSRGGSTYYADSVKGRFTISRDNAKNTVYLQMNSLKPEDTAVYYCAAGAGYPYYWGQGTQVTVSS	high polyreactivity
QVQLVESGGGLVQAGGSLRLSCAASGIIFRGNAMGWYRQAPGKERELVAAISSGGSTYYADSVKGRFTISRDNAKNRVYLQMNSLKPEDTAVYYCNARWYYWGTLYGSWGHGTQVTVSS	high polyreactivity
QVQLVESGGGLVQAGGSLRLSCAASGIIFRGNAMGWYRQAPGKERELVAAMSKSGGRTYYADSVKGRFTISRDNAKNTVYLQMNSLKPEDTAVYYCAARRSTSYPAGNDYWGQGTQVTVSS	high polyreactivity
QVQLVESGGGLVQAGGSLRLSCAASGIIFRGYVMGWYRQAPGKERELVAAISTSGGRTSYADSVKGRFTISRDNAKNTVYLQMNSLKPEDTAVYYCAARPLYSYSQWGYGYWGQGTQVTVSS	high polyreactivity
QVQLVESGGGLVQAGGSLRLSCAASGIIFRLYAMGWYRQAPGKERELVAAISYRGGSTYYADSVKGRFTISRDNAKNTVYLQMNSLKPEDTAVYYCAGRNPRYSFYYWGQGTQVTVSS	high polyreactivity
QVQLVESGGGLVQAGGSLRLSCAASGIIFRLYGMGWYIQAPGKEREFVATITWRGGRTNYADSVKGRFTISRDNAKNTVYLQMNSLKPEDTAVYYCAAGSAPSYWGGWYYERDYWGQGTQVTVSS	low polyreactivity
QVQLVESGGGLVQAGGSLRLSCAASGIIFRNYAMGWYRQAPGKEREFVASITKRGGSTYYADSVKGRFTISRDNAKNTVYLQMNSLKPEDTAVYYCNTQWYRGRTEYGYWGQGTQVTVSS	high polyreactivity
QVQLVESGGGLVQAGGSLRLSCAASGIIFRNYAMGWYRQAPGKERELVAAISRNGGSTYYADSVKGRFTISRDNAKNTVYLQMNSLKPEDTAVYYCAAVSPGTVTNGKSRDYWGQGTQVSVSS	high polyreactivity
QVQLVESGGGLVQAGGSLRLSCAASGIIFRPYAMGWYRQAPGKERELVAAITGSGVSTYYADSVKGRFTISRDNAKNTVYLQMNSLKPEDTAVYYCAARYDVHYDGMDYWGQGTQVTVSS	low polyreactivity
QVQLVESGGGLVQAGGSLRLSCAASGIIFRPYAMGWYRQAPGKEREMVAAITWSGTSTYYADSVKGRFTISRDNAKNTVYLQMNSLKPEDTAVYYCAATWSYGVSWYEYWGQGTQVTVSS	high polyreactivity
QVQLVESGGGLVQAGGSLRLSCAASGIIFRRYAMGWYRQAPGKERELVAAISWSGGSTYYADSVKGRFTISRDNAKNTVYLQMNSLKPEDTAVYYCAAAAYTRDEYDYWGQGTQVTVSS	high polyreactivity
QVQLVESGGGLVQAGGSLRLSCAASGIIFRRYAMGWYRQAPGKERELVAAITGSGGSTYYADSVKGRFTISRDNAKNTVYLQMNSLKPEDTAVYYCAAKGYPSRYSYGWYNYWGQGTQVTVSS	high polyreactivity
QVQLVESGGGLVQAGGSLRLSCAASGIIFRRYAMGWYRQAPGKERQLVARISFRGGSTYYADSVKGRFTISRDNAKNTVYLQMNSLKPEDTAVYYCNRDPRYSKEVDGDYWGQGTQVTVSS	high polyreactivity
QVQLVESGGGLVQAGGSLRLSCAASGIIFRRYAMGWYSQAPVKERELVAAITGSGGSPYYADSVKGRFTISRDNAKNTVYLQMNSLKPEDTAVYYCAAQSVLRFASSRYNSWGQGTQVTVSS	high polyreactivity
QVQLVESGGGLVQAGGSLRLSCAASGIIFRSNAMGWYRQAPVKETELVAAITGRGTRTYFADSVKGRFTISRDYAKYRVYFQMNSLKPEDTAVYYCNKGQTRGMGYWGQGTQVTVSS	high polyreactivity

Source: the nanobody polyreactivity screen of Harvey et al. (2022)
